From paper PMC1626105

Molecular target: Elongin B, expressed in Saos-2 cells (UniProt Q15370)
Assay: co-immunoprecipitation (IP: myc, IB: HA) with band densitometry
Conditions: Saos-2 cells co-transfected with LANA-myc and HA-Elo.BC; parent: est. 4.0; read off a plot

Sequence of UniProt Q15370 (Q15370 whole entry): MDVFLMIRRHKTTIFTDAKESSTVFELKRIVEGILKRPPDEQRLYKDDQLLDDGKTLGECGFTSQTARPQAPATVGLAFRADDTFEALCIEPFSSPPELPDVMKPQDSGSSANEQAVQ

Substance	response
KSHV latency-associated nuclear antigen (LANA), full length, myc-tagged L213P; C217F	1.3 RD
KSHV latency-associated nuclear antigen (LANA), full length, myc-tagged C217G	0.4 RD
KSHV latency-associated nuclear antigen (LANA), full length, myc-tagged L213G	0.4 RD
